Several values for one entry are separate records, joined by “and”; a condition that tells them apart may be missing. Equal entries are not always repeated. Where two headings read alike, the source gives them in different places.
How the values were obtained:
[1] = target: Tal-N (TP901-1 ORF47 N-terminal region, residues 1-386) (Lactococcus phage TP901-1); assay: native MS
[2] = target: Tal-N (TP901-1 ORF47 N-terminal region, residues 1-386) (Lactococcus phage TP901-1); assay: denaturing ESI-MS
[3] = target: phage TP901-1 ORF46 (Dit) (Lactococcus phage TP901-1); assay: native MS
[4] = target: phage TP901-1 ORF46 (Dit) (Lactococcus phage TP901-1); assay: denaturing ESI-MS
[5] = target: phage TP901-1 ORF46 (Dit) (Lactococcus phage TP901-1); assay: native MS; remark: listed apart in the source
[6] = target: phage TP901-1 ORF46 (Dit) (Lactococcus phage TP901-1); assay: SEC-MALS
[7] = target: phage TP901-1 ORF48 (BppU), as in the Tripod sample (Lactococcus phage TP901-1); assay: native MS
[8] = target: phage TP901-1 ORF48 (BppU), as in the samples TP1 and Dit-BppU (Lactococcus phage TP901-1); assay: native MS
[9] = target: phage TP901-1 ORF48 (BppU), as in the samples TP1 and Dit-BppU (Lactococcus phage TP901-1); assay: native MS; remark: listed apart in the source
[10] = target: phage TP901-1 ORF49 (BppL), as in the Tripod sample (Lactococcus phage TP901-1); assay: native MS
[11] = target: phage TP901-1 ORF49 (BppL, the RBP), as in the sample TP1 (Lactococcus phage TP901-1); assay: native MS
[12] = target: phage p2 ORF15 (as in the sample SBP1) (Lactococcus phage p2) (UniProt D3WAD3); assay: native MS
[13] = target: phage p2 ORF16 (Lactococcus phage p2); assay: native MS
[14] = target: phage p2 ORF16 (Lactococcus phage p2); assay: native MS; remark: listed apart in the source
[15] = target: phage p2 baseplate subcomplex SBP1 [6xORF15 + 3xORF16] (Lactococcus phage p2) (UniProt D3WAD3); assay: native MS
[16] = target: the molecule itself; assay: native MS
[17] = target: the molecule itself; assay: native MS; remark: listed apart in the source
[18] = target: the molecule itself; assay: denaturing ESI-MS
[19] = target: the molecule itself; assay: native MS; remark: listed apart in the source
[20] = target: T1, phage p2 baseplate [6xORF15 + 3xORF16 + 18xORF18] (Lactococcus phage p2); assay: native MS
T1 chain 1: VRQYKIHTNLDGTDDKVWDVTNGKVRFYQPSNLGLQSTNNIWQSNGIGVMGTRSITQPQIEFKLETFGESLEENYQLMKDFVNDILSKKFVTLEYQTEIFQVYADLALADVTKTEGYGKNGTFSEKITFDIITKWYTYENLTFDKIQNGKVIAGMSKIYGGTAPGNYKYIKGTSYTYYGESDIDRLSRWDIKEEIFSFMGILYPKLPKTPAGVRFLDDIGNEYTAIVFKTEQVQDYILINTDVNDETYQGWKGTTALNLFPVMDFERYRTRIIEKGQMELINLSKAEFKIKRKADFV
T1 chain 2: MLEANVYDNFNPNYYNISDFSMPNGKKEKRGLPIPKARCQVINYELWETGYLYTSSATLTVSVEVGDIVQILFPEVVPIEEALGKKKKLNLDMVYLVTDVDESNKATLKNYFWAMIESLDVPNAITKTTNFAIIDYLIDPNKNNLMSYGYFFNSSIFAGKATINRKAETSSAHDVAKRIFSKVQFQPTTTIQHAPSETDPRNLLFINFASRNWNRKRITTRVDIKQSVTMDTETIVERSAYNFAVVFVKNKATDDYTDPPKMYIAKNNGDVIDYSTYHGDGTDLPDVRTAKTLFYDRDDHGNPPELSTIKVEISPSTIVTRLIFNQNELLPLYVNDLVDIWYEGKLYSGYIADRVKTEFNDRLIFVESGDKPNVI
T1 chain 3: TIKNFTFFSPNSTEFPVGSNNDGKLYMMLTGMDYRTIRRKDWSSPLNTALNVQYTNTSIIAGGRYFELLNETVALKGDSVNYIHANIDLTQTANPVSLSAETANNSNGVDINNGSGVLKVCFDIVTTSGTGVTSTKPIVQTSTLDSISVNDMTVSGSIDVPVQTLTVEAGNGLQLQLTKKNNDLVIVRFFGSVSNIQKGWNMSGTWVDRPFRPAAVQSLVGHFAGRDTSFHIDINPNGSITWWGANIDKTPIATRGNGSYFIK

Tal-N (TP901-1 ORF47 N-terminal region, residues 1-386) (domain or fragment)
stoichiometry N [1]: 2 and 3 | stoichiometry N [2]: 2 and 3

phage TP901-1 ORF46 (Dit) (natural protein)
stoichiometry N [3]: 6 | stoichiometry N [4]: 2 and 3 and 6 | stoichiometry N [5]: 6 and 12 | stoichiometry N [6]: 12

phage TP901-1 ORF48 (BppU), as in the Tripod sample (natural protein)
stoichiometry N [7]: 3

phage TP901-1 ORF48 (BppU), as in the samples TP1 and Dit-BppU (natural protein)
stoichiometry N [8]: 3 | stoichiometry N [9]: 3

phage TP901-1 ORF49 (BppL), as in the Tripod sample (natural protein)
stoichiometry N [10]: 3

phage TP901-1 ORF49 (BppL, the RBP), as in the sample TP1 (natural protein)
stoichiometry N [11]: 3 and 6

phage p2 ORF15 (as in the sample SBP1) (from UniProt D3WAD3 2-298) (natural protein)
stoichiometry N [12]: 6

phage p2 ORF16 (natural protein)
stoichiometry N [13]: 2 and 3 | stoichiometry N [14]: 3

phage p2 baseplate subcomplex SBP1 [6xORF15 + 3xORF16] (from UniProt D3WAD3 2-298)
stoichiometry N [15]: 2

B1: phage p2 ORF15 (as in the samples BP1, BP2 and SBP2) (natural protein, Lactococcus phage p2)
chain: T1 chain 1
stoichiometry N [16]: 6

B2: phage p2 ORF18 (receptor-binding protein) (natural protein, Lactococcus phage p2)
chain: T1 chain 3
stoichiometry N [17]: 3 | stoichiometry N [18]: 2 | stoichiometry N [19]: 3

B3: VHH5 neutralizing llama antibody fragment (VHH)
VHH: QVQLQESGGGLVQAGGSLRLSCTASRRTGSNWCMGWFRQLAGKEPELVVALNFDYDMTYYADSVKGRFTVSRDSGKNTVYLQMNSLKPEDTAIYYCAARSGGFSSNRELYDGWGQGTQVTVSS
stoichiometry N [20]: 18

— article PMC3186816 (Molecular & Cellular Proteomics : MCP, 2011)
